Target: T1, mouse TMEM16A(ac) isoform (mouse), Q8BHY3
T1 chain: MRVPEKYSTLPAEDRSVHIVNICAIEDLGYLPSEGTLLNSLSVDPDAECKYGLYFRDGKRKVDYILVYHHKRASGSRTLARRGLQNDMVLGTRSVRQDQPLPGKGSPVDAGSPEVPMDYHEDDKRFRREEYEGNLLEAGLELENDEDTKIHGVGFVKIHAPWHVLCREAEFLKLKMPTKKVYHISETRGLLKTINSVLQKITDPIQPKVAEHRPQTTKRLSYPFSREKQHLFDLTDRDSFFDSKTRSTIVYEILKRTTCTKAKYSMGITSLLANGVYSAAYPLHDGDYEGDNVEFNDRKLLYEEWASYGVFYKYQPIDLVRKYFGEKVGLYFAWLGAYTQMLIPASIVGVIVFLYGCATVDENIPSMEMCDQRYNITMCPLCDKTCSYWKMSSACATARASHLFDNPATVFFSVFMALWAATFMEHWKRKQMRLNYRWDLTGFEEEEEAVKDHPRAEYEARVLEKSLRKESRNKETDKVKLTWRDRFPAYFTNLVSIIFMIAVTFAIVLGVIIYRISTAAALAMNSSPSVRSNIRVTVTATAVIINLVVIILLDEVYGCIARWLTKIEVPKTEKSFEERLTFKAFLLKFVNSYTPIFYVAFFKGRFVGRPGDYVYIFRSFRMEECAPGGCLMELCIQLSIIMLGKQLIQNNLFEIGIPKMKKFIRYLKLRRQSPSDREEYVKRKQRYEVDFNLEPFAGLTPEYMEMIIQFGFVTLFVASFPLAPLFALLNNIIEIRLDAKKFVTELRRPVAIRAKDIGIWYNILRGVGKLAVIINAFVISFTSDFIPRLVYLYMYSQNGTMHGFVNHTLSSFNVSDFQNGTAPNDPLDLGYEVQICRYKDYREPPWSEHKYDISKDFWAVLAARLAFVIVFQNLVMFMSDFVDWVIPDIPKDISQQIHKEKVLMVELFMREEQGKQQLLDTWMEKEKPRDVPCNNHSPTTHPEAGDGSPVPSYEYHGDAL
Assay: cryo-EM structure; purified mTMEM16A at 3 mg/ml in 0.12% digitonin, 20 mM HEPES pH 7.5, 150 mM NaCl, 0.5 mM CaCl2; single particle reconstruction with C2 symmetry imposed, 6.6 Å; poly-alanine model
Conditions: remark: other sources report otherwise

B1: mouse TMEM16A(ac) isoform, Q8BHY3 1-960 (natural protein)
chain: T1 chain
With B1 the stoichiometry N was 2.

Reference: publication PMC5470873
